Assay results published in doi:10.1101/2020.12.23.424221.
Where two headings read alike, the source gives them in different places.

Experiments:
Assay in all cases: single-molecule TIRF microscopy
[1] = molecular target: Taxol-stabilized rhodamine-labeled biotinylated microtubules (bovine) (UniProt Q6B856)
[2] = molecular target: Taxol-stabilized rhodamine-labeled biotinylated microtubules (bovine) (UniProt Q6B856); remark: listed apart in the source
[3] = molecular target: Taxol-stabilized rhodamine-labeled biotinylated microtubules (bovine) (UniProt Q6B856); remark: listed apart in the source
[4] = molecular target: Taxol-stabilized rhodamine-labeled biotinylated microtubules (bovine) (UniProt Q6B856); remark: listed apart in the source
[5] = molecular target: Taxol-stabilized rhodamine-labeled biotinylated microtubules (bovine) (UniProt Q6B856); remark: listed apart in the source
[6] = molecular target: Taxol-stabilized rhodamine-labeled biotinylated microtubules (bovine) (UniProt Q6B856); remark: listed apart in the source
[7] = molecular target: Taxol-stabilized rhodamine-labeled biotinylated microtubules (bovine) (UniProt Q6B856); remark: listed apart in the source
[8] = molecular target: Taxol-stabilized rhodamine-labeled biotinylated microtubules (bovine) (UniProt Q6B856); remark: listed apart in the source
[9] = molecular target: Taxol-stabilized rhodamine-labeled biotinylated microtubules (bovine) (UniProt Q6B856); remark: listed apart in the source
[10] = molecular target: Taxol-stabilized rhodamine-labeled biotinylated microtubules (bovine) (UniProt Q6B856); remark: listed apart in the source
[11] = molecular target: Taxol-stabilized rhodamine-labeled biotinylated microtubules (bovine) (UniProt Q6B856); remark: listed apart in the source
[12] = molecular target: Taxol-stabilized rhodamine-labeled biotinylated microtubules (bovine) (UniProt Q6B856); remark: listed apart in the source

lifetime on the microtubule (median) [1]: 4.2 s
lifetime on the microtubule (median) [2]: 2.1 s
lifetime on the microtubule (median) [3]: 7.2 s
lifetime on the microtubule (median) [4]: 3.9 s
lifetime on the microtubule (median) [5]: 3.6 s
lifetime on the microtubule (median) [6]: 9 s
lifetime on the microtubule (median) [7]: 4.9 s
lifetime on the microtubule (median) [8]: 8.3 s
lifetime on the microtubule (median) [9]: 17.9 s
lifetime on the microtubule (median) [10]: 1.8 s
lifetime on the microtubule (median) [11]: 1.2 s
lifetime on the microtubule (median) [12]: 1.5 s
B1: GFP-tagged Kif4A (natural protein)
chain: MKEEVKGIPVRVALRCRPLVPKEISEGCQMCLSFVPGEPQVVVGTDKSFTYDFVFDPSTEQEEVFNTAVAPLIKGVFKGYNATVLAYGQTGSGKTYSMGGAYTAEQENEPTVGVIPRVIQLLFKEIDKKSDFEFTLKVSYLEIYNEEILDLLCPSREKAQINIREDPKEGIKIVGLTEKTVLVALDTVSCLEQGNNSRTVASTAMNSQSSRSHAIFTISLEQRKKSDKNSSFRSKLHLVDLAGSERQKKTKAEGDRLKEGININRGLLCLGNVISALGDDKKGGFVPYRDSKLTRLLQDSLGGNSHTLMIACVSPADSNLEETLNTLRYADRARKIKNKPIVNIDPQTAELNHLKQQVQQLQVLLLQAHGGTLPGSITVEPSENLQSLMEKNQSLVEENEKLSRGLSEAAGQTAQMLERIILTEQANEKMNAKLEELRQHAACKLDLQKLVETLEDQELKENVEIICNLQQLITQLSDETVACMAAAIDTAVEQEAQVETSPETSRSSDAFTTQHALRQAQMSKELVELNKALALKEALARKMTQNDSQLQPIQYQYQDNIKELELEVINLQKEKEELVLELQTAKKDANQAKLSERRRKRLQELEGQIADLKKKLNEQSKLLKLKESTERTVSKLNQEIRMMKNQRVQLMRQMKEDAEKFRQWKQKKDKEVIQLKERDRKRQYELLKLERNFQKQSNVLRRKTEEAAAANKRLKDALQKQREVADKRKETQSRGMEGTAARVKNWLGNEIEVMVSTEEAKRHLNDLLEDRKILAQDVAQLKEKKESGENPPPKLRRRTFSLTEVRGQVSESEDSITKQIESLETEMEFRSAQIADLQQKLLDAESEDRPKQRWENIATILEAKCALKYLIGELVSSKIQVSKLESSLKQSKTSCADMQKMLFEERNHFAEIETELQAELVRMEQQHQEKVLYLLSQLQQSQMAEKQLEESVSEKEQQLLSTLKCQDEELEKMREVCEQNQQLLRENEIIKQKLTLLQVASRQKHLPKDTLLSPDSSFEYVPPKPKPSRVKEKFLEQSMDIEDLKYCSEHSVNEHEDGDGDDDEGDDEEWKPTKLVKVSRKNIQGCSCKGWCGNKQCGCRKQKSDCGVDCCCDPTKCRNRQQGKDSLGTVERTQDSEGSFKLEDPTEVTPGLSFFNPVCATPNSKILKEMCDVEQVLSKKTPPAPSPFDLPELKHVATEYQENKAPGKKKKRALASNTSFFSGCSPIEEEAH
